These results are taken from patent US20060172380.

The data set has as its system TAB1 (437-504).

Consider TAK1-HA, for which the “in vitro kinase assay of immunoprecipitated TAK1 (activation of XMEK2 (SEK1), phosphorylation of KN-p38 (MPK2))” value is “TAB1 increases TAK1 kinase activity”.
